Experimental findings from patent US20240254204A1 are described below.

Like-named read-outs stand apart in the source and are kept apart here.

Test [1] addresses SARS-CoV-1.
For test [2], the target named is SARS-CoV-1 RBD (SARS-CoV). The experiment in a line: ELISA, 100 ng coated RBD, anti-human IgG-HRP.
The target of test [3] is SARS-CoV-2 RBD (SARS-CoV-2). The experiment in a line: ELISA, 100 ng coated RBD, anti-human IgG-HRP.
The target of test [4] is SARS-CoV-1 RBD (SARS-CoV). The experiment in a line: sVNT, cPass kit format with SARS-CoV-1 RBD-HRP.
The target of test [5] is SARS-CoV-2 RBD (SARS-CoV-2). Nature of the test: sVNT, cPass kit with SARS-CoV-2 RBD-HRP.
Test [6] deals with Bat CoV BANAL-52.
The target in test [7] is SARS-CoV-2 Lambda (SARS-CoV-2 Lambda).
The target of test [8] is SARS-CoV-2 Mu.
Test [9] addresses Bat CoV BANAL-52. The source holds these as a separate data set.
Test [10] deals with SARS-CoV-2 Mu. The source holds these as a separate data set.
In test [11] the target is SARS-CoV-2 Lambda (SARS-CoV-2 Lambda). This is another data set of the same source.
In test [12] the target is SARS-CoV-2 Gamma.
The target of test [13] is Bat CoV Rs2018B (SC1r-CoV Rs2018B).
The target of test [14] is SARS-CoV-1. This is another data set of the same source.
Test [15] addresses Bat CoV RsSHC014 (SC1r-CoV RsSHC014).
In test [16] the target is Bat CoV LYRa11.
Test [17] has as its target Bat CoV WIV-1 (SC1r-CoV WIV-1).
In test [18] the target is Pangolin CoV GD-1.
The target in test [19] is SARS-CoV-2 Delta.
Test [20] has as its target SARS-CoV-2 Delta Plus.
Test [21] addresses SARS-CoV-2 Gamma. The source holds these as a separate data set.

The substance CR3022 displayed an IC50 in test [1] of 0.397 µg/mL.

As for CR3022 (antibody), the Binding SARS-CoV-1 in test [2] was 1.19. In test [3], the Binding SARS-CoV-2 stood at 1.46. Further, in [4], the sVNT SARS-CoV-1 (% I) came to 32.5%. Further, in test [5], the sVNT SARS-CoV-2 (% I) was found to be 24.2%.

With LyCoV-1404, the IC50 came to 0.12 µg/mL in test [6], 0.077 µg/mL in test [7] and 0.067 µg/mL in test [8].

In turn, LyCoV-1404 (Eli Lily) (antibody) had a Binding SARS-CoV-1 in [2] of 1.54. In test [3], this substance displayed a Binding SARS-CoV-2 of 0.445. The substance also returned a sVNT SARS-CoV-1 (% I) in test [4] of 94.5%. The sVNT SARS-CoV-2 (% I) in test [5] was 0.144%.

As to S2X259, the IC50 in [9] worked out at 0.097 µg/mL; in test [10], 0.067 µg/mL; in test [11] it was 0.047 µg/mL; in [12], 0.102 µg/mL; in test [13], 0.142 µg/mL; in test [14], 0.871 µg/mL. For the same substance, the IC50 in test [15] is 0.133 µg/mL; in test [16], 0.073 µg/mL; in test [17], 0.117 µg/mL; in [18] it was 0.112 µg/mL.

Substance S2X259 (VirBiotech) (antibody) came in with a Binding SARS-CoV-1 in [2] of 0.973. The substance also had a Binding SARS-CoV-2 in [3] of 1.73. In addition, in [4], the sVNT SARS-CoV-1 (% I) is 92.8%. The same substance registered a sVNT SARS-CoV-2 (% I) in test [5] of 94%.

With S309, the half-maximal inhibitory concentration (IC50) in test [19] amounted to 0.199 µg/mL; in [20], 0.24 µg/mL; in [21], 0.172 µg/mL.

The substance S309 (Sotrovimab, GSK) (antibody) registered a Binding SARS-CoV-1 in test [2] of 1.22. In test [3], this substance came in with a Binding SARS-CoV-2 of 1.55. Besides, the sVNT SARS-CoV-1 (% I) in test [4] was determined as 36.5%. The substance also returned a sVNT SARS-CoV-2 (% I) in test [5] of 39.6%.

What is called IC50 is the concentration at which inhibition is half-maximal.
